Assay results taken from patent US11707511B2, “Vaccine compositions and methods of using the same” (The Board of Supervisors of Louisiana State University and …, priority 2017, dated 2023).

B1: 10E7E2: IgG1 mAb of hybridoma 10E7E2, specific for GPV-P3; VH SEQ ID NO: 72, VL SEQ ID NO: 74 (antibody, V domains shown)
VH: QVQLKQSGPGLVQPSQSLSITCTVSGFSLTSYGVHWVRQSPGKGLEWLGVIWSGGTTDYNAAFISRLSISKDNSKSQVFFKMNSLQANDTAIYYCARGGHRGFAYWGQGTLVTVSA
VL: DIVMTQSHKFMSTSVGDRVSITCKASQDVGTAVAWYQQKPGQSPKLLIYWASTRHTGVPDRFTGSGSGTDFTLTISNVQSEDLADYFCQQYSSYPLTFGAGTKLELK
B2: 1D4H5: IgG1 mAb of hybridoma 1D4H5, specific for GPV-M1; VH SEQ ID NO: 64, VL SEQ ID NO: 66 (antibody, V domains shown)
VH: MYLGLNCVFIVFLLKGVQSEVKLEESGGGLVQPGGSMKLSCVASGFTFSNYWMNWVRQSPEKGLEWVAEIRLKSNNYATHYAESVKGRFTISSDDSKSSVYLQMNNLRAEDTGIYYCSTGNYWGQGTTLTVSS
VL: MDFQMQIISLLLISVTVIVSNGEIVLTQSPTTMAASPGEKITITCSASSTISSNYLHWYQQKPGFSPKLLIYRTSNLASGVPARFSGSGSGTSYSLTIGTMEAEDVATYYCQQGSTISRTFGSGTKLEIK

Tested on: C. parapsilosis ATCC MYA-4646
Experiment: Passive transfer of mAbs, neutropenic mouse model of disseminated candidiasis by C. parapsilosis
Assay type: in vivo
Conditions: Table 6; neutropenic BALB/c mice; mAb i.p. 4 h before 5×10^6 C. parapsilosis i.v.
Source text: Induction of neutropenia. Although C. albicans remains the dominant disease-causing pathogen of this genus, rates of infections caused by non-albicans Candida (NAC) species are increasing. Among these Candida species, only C. albicans is pathogenic in the normal mouse model. To test vaccine and mAbs against non-albicans Candida spp, we have developed neutropenic murine models of disseminated infection by C. glabrata, C. tropicalis, and C. parapsilosis. Before challenge, BLAB/c mice were made neutropenic by intraperitoneal receipt of a 200 mg/kg dose of cyclophosphamide (CY; Sigma-Aldrich) at day −3. The i.p. injection (150 mg/kg) is repeated every 10 days after infection (i.e., at days 10, 20, 30, and 40 post-infection) in order to maintain low neutrophil counts for the entire experimental procedure. […] To evaluate leukocytopenia in these mice, blood samples were collected from tail veins 3 days after each CY or saline injection (n=10 in each group). Total leukocyte and differential cell counts were determined on a hemocytometer and by Wright-Giemsa staining. Body weights of the mice were also measured and compared for 14 days after the first CY or saline injection (n=10 in each group).
Fungal challenge dose and assessment ofprotection. Although C. albicans remains the dominant disease-causing pathogen of this genus, rates of infections caused by non-albicans Candida (NAC) species are increasing (18). Among these Candida species, only C. albicans is pathogenic in the normal mouse model (19,20). We have developed neutropenic murine models of disseminated infection by C. glabrata, C. tropicalis, and C. parapsilosis. […] In details, mice of different experimental groups (five mice per group) were intravenously infected with 5×10^6 viable C. parapsilosis ATCC MYA-4646 (A), 1×108 C. glabrata ATCC 2001 cells (B) and 1×107 C. tropicalis ATCC 28775 cells (C) in 0.1 ml DPBS. As controls, immunocompetent mice were challenged with the same dose of each Candida strain tested.
Passive transfer of MAbs by intraperitoneal (i.p.) route. The preventive effect of peptide-specific mAbs listed in Table 3 and Table 4 in naïve mice was examined by passive transfer experiments. Each mAb was appropriately diluted in DPBS to give a 40,000-100,000 ELISA titer against each corresponding specific peptide coated on the plate. For testing, mice received 0.5 ml of each mAb or 1 ml of two mAbs in combination (0.5 ml of each) intraperitoneally. Table 6 and Table 7 have listed all the peptide-specific mAb combinations that have been tested, as well as the protective efficacy of each mAb cocktail as compared to single mAb treatment. […] For animal groups that were challenged non-albicans candida species, determined optimal challenge doses were applied for each candida strain. […]

| Molecule | Protection against C. parapsilosis | Protection against C. parapsilosis (grade word) |
| --- | --- | --- |
| B1 | (60-80%) | High |
| B2 | (70-80%) | High |
